According to PMC2699419 (2007):

Legend:
[1] = target: T1, GM-CSF receptor alpha chain (Balb/c form, Asp227; on Ba/F3 cells expressing beta chain) (Mus musculus, UniProt Q00941); test: flow cytometry cell binding, non-linear regression
T1 chain: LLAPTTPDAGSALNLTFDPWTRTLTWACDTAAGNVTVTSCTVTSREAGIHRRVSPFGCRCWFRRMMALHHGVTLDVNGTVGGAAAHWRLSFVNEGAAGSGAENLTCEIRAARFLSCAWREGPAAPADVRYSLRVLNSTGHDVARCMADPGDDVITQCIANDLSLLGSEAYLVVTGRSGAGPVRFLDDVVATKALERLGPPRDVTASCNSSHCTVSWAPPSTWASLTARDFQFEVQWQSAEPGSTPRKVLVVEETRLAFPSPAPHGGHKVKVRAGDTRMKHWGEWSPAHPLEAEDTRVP

[2] = target: T2, GM-CSF receptor alpha chain (C57BL/6 form, Gly227; on Ba/F3 cells expressing beta chain) (Mus musculus, UniProt Q00941); test: flow cytometry cell binding, non-linear regression
T2 chain: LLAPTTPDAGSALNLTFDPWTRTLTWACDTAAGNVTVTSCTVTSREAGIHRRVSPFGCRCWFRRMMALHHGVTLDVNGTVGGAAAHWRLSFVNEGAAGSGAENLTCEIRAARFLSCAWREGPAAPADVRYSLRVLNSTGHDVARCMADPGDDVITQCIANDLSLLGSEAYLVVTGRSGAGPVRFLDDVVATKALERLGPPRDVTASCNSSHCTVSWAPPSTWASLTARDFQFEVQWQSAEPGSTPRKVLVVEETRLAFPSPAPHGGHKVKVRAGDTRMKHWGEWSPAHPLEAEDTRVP

- Kd [1]: 15.6 nM
- Kd [2]: 19.6 nM
B1: GM-CSF-Fc fusion (GM-Fc) (protein)
chain: APTRSPITVTRPWKHVEAIKEALNLLDDMPVTLNEEVEVVSNEFSFKKLTCVQTRLKIFEQGLRGNFTKLKGALNMTASYYQTYCPPTPETDCETQVTTYADFIDSLKTFLTDIPFECKKPGQK
modifications: GM-CSF fused to mutated human IgG1 Fc, Ba/F3 cells co-expressing beta chain
